# Reference: patent US20150239980A1 (NEOTOPE BOSCIENCES, published 2015)
# T1: recombinant hMCAM-His (human, UniProt P43121 24-559)
# T1 construct: not shown: His tag
# T1 chain: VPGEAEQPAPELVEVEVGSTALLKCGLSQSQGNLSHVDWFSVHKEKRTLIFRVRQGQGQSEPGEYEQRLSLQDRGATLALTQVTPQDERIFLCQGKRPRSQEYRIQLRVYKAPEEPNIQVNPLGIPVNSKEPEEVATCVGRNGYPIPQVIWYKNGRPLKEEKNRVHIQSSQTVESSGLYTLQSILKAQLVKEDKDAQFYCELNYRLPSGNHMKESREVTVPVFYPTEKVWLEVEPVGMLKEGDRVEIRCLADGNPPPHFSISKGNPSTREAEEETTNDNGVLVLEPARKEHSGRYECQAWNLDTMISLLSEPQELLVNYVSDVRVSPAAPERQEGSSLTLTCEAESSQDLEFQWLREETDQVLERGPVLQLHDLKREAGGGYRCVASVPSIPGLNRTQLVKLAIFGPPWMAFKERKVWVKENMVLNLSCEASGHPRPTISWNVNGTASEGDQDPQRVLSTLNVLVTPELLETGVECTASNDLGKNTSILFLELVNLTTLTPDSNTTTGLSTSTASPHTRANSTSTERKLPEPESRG
# T2: human MCAM (melanoma cell adhesion molecule) expressed on transfected CHO cells (human, UniProt P43121 24-646)
# T2 construct: also called hMCAM; CD146
# T2 chain: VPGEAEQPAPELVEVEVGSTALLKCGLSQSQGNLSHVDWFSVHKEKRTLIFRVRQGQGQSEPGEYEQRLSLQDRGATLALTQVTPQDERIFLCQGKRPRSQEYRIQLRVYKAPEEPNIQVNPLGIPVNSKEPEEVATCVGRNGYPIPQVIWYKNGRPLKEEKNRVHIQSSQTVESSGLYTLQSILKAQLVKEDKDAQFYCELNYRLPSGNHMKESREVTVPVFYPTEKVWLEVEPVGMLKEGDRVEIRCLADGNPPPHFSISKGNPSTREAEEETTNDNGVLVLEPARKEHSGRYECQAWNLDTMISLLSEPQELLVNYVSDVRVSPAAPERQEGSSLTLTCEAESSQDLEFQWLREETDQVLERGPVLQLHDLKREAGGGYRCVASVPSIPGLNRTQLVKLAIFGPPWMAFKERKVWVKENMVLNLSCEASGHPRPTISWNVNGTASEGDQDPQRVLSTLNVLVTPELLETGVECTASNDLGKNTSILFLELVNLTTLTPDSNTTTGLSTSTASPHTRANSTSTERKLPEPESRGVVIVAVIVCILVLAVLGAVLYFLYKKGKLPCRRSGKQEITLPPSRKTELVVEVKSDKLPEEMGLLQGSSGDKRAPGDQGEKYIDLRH
# T3: human MCAM domain 2 (amino acids 139-242), Fc-tagged (human, UniProt P43121 139-242)
# T3 sequence: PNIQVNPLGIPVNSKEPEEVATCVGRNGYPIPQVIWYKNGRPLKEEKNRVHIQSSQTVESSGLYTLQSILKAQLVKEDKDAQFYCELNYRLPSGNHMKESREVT
# T4: Recombinant human Fc-tagged MCAM IgG1-2A (human MCAM domains 1 and 2, amino acids 19-242) (human, UniProt P43121 19-242)
# T4 construct: also called human MCAM IgG1-2A; MCAM Fc domains 1 and 2; not shown: human Fc tag
# T4 sequence: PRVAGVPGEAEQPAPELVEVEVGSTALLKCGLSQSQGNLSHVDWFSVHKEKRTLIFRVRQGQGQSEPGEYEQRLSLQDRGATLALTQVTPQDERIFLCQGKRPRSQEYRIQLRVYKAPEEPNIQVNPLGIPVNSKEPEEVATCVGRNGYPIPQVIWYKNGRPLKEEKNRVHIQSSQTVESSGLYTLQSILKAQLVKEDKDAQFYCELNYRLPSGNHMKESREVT
# T5: human MCAM domain 3 (amino acids 244-321), Fc-tagged (human, UniProt P43121 244-321)
# T5 construct: also called domain 3 of the human MCAM protein
# T5 sequence: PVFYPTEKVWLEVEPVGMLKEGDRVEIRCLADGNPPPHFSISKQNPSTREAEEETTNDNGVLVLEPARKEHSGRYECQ
# How the values were obtained:
# recombinant hMCAM-His [1] = molecular target: T1, recombinant hMCAM-His; assay: competitive ELISA on hMCAM-His, competitor biotinylated rodent or chimeric 1749; vs rodent 1749
# [2] = molecular target: T2, human MCAM (melanoma cell adhesion …); assay: laminin/FACS on hMCAM CHO cells, competitor laminin 411; Expt#2; vs rodent 1749
# Procedure, shortened: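 Incubate 30-45 min; wash; add anti-laminin-AF650; acquire on flow cytometer for laminin binding signal.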
# [3] = molecular target: T3, human MCAM domain 2 (amino acids …); assay: ForteBio domain mapping as in Example 8
# [4] = molecular target: T4, Recombinant human Fc-tagged MCAM …; assay: ForteBio domain mapping as in Example 8
# [5] = molecular target: T5, human MCAM domain 3 (amino acids …); assay: ForteBio domain mapping as in Example 8
# recombinant hMCAM-His [6] = molecular target: T1, recombinant hMCAM-His; assay: competitive ELISA on hMCAM-His, competitor biotinylated rodent or chimeric 1749; Expt. #1; vs rodent 1749
# Procedure: ELISA plates were coated with recombinant hMCAM-His, and blocked with casein buffer to prevent non-specific binding. Biotinylated rodent or chimeric antibody was added at a subsaturating concentration, in the presence or absence of 3× increasing concentrations of unlabeled competitor (humanized antibody, rodent, or chimeric). After washing to remove unbound antibody, streptavidin HRP was added to allow detection of the biotinylated antibody. The ELISA was developed with TMB substrate and the OD450 was measured. The IC50 of the unlabeled competitor was determined using the GraphPad Prism5 software.
# recombinant hMCAM-His [7] = molecular target: T1, recombinant hMCAM-His; assay: ForteBio Octet Red, hMCAM-His analyte; Expt. #1; vs rodent 1749
# Procedure: (§1) The affinities were measured using the ForteBio Octet Red. Anti-human Fc sensors were used to capture the humanized antibodies, and several concentrations of hMCAMHis analyte were used to determine the affinity using a 1:1 fitting model.
# recombinant hMCAM-His [8] = molecular target: T1, recombinant hMCAM-His; assay: competitive ELISA on hMCAM-His, competitor biotinylated rodent or chimeric 1749; Expt. #2; vs rodent 1749
# Procedure, shortened: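 Plates coated with recombinant hMCAM-His and casein-blocked; biotinylated rodent or chimeric antibody at subsaturating level competed by 3× serial concentrations of unlabeled humanized, rodent or chimeric antibody. Bound biotinylated antibody detected with streptavidin-HRP/TMB at OD450; competitor IC50 fitted.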
# recombinant hMCAM-His [9] = molecular target: T1, recombinant hMCAM-His; assay: ForteBio Octet Red, hMCAM-His analyte; Expt. #2; vs rodent 1749
# Procedure: as §1
binder,measurement,setting,value
"mouse anti-human MCAM monoclonal antibody clone 1749.1.3 (antibody, V domains shown, mouse hybridoma antibody; also called rodent 1749; murine 1749.1.3 anti-MCAM antibody) VH: DVKLVESGGDLVKPGGSLKLSCAASGFTFSSYIMSWVRQTPEKRLEWVATISSGGSSTYYPDSVKGRFTISRDNAKNTLYLQMSSLKSEDTAMYYCTRDDDYDVKVFAYWGQGTLVTVSA VL: DIVMSQSPSSLAVSAGEKVTMNCKSSRSLLNSRIRKNYLAWYQQKPGQSPKLLIYWASTRESGVPDRFTGSGSGTDFTLTISSVQAEDLAVYYCKQSYNLLTFGAGTKLELK",fold over rodent (competitive ELISA),recombinant hMCAM-His [1],1 fold
same,"fold over rodent (blocking, laminin/FACS)",[2],1 fold
same,binding result,[3],no binding
same,binding result,[4],no binding
same,binding result,[5],binds
same,fold over rodent (competitive ELISA),recombinant hMCAM-His [6],1 fold
same,fold over rodent (Forte affinity),recombinant hMCAM-His [7],1 fold
same,fold over rodent (competitive ELISA),recombinant hMCAM-His [8],1 fold
same,fold over rodent (Forte affinity),recombinant hMCAM-His [9],1 fold
